Experimental data from PMC12043044, “Synthesis of Selectively ^13C/^2H/^15N‐ Labeled Arginine to Probe Protein Conformation and Interaction by NMR Spectroscopy” (Chemistry (Weinheim an Der Bergstrasse, Germany), 2025).

Target: T1, human ubiquitin (human, UniProt P0CG48 1-76)
T1 construct: ubiquitin, human, the 76 amino acid-long protein (cut product of the polyubiquitin or ubiquitin-ribosomal fusion precursors); Isotope-labelled only (uniformly 15N, arginines 13Cdelta/2Hbeta,gamma/15Nepsilon); No tag is mentioned and the purification uses none; also called arginine-labeled ubiquitin; source: E. coli BL21(DE3), pET-21a(+), purified (heat shock at 70 °C, anion exchange, size …)
Test: NMR titration; 70 µM arginine-labeled (U-15N, 13Cδ/2Hβγ/15Nε Arg) ubiquitin titrated with increasing amounts of unlabeled Sla1 SH3-3; 50 mM Tris-HCl, pH 8.0, 25 °C; 1H-13C HSQC and 1H-15N SOFAST-HMQC, chemical shift perturbations
Conditions: both partners purified

- binding result: binds
B1: third SH3 domain (SH3-3) of yeast endocytic protein Sla1 (domain or fragment)
chain: MASKSKKRGIVQYDFMAESQDELTIKSGDKVYILDDKKSKDWWMCQLVDSGKSGLVPAQFIEPVRDKKHTE
notes: Sla1, yeast, third SH3 domain (SH3-3); residues E367, E371 and F409 are named as lying in the domain (PDB 2JT4); PDB 2JT4 is the cited NMR model of the complex with ubiquitin and may hold other limits; Plasmid bought from GeneCust; No removal of the tag is described; also called Sla1 SH3-3; source: cell-free expression (E. coli S15 extract, pIVEX2.3d vector), purified (HisTrap FF)
